Our source for the Ka values is patent US20200016201A1.

The target in experiment [1] is HLA-DR on human cells (human). Put plainly: avidity constant on tonsil lymphocytes.
Experiment [2] deals with HLA-DR on human cells (human). Put plainly: avidity constant, Scatchard plot analysis on the target tumor cell line (ARH-77).

B1: Lym-2 (antibody, V domains shown)
VH: EVQLEESGGGLVQPGGSMKLSCVASGFTFSNYWMNWVRQSPEKGLEWVAEIRFKSHNYATHFAESVKGRFTISRDDSKSSVYLQMNNLRAEDTGIYYCTRRIGNSDYDWWYFDVWGAGTSVTVSS
VL: DIVMTQSHKFMSTSVGDRVSVTCKASQNVGNNVAWYQQKPGQSPKVLIYSASYRYSGVPDRFTGSGSGTDFTLTISNVQSEDLAEYFCQQYNTYPFTFGSGTKLEIK
As for B1, the Ka in experiment [1] was determined as 1.23e+08 M⁻¹; in experiment [2], 2.33e+08 M⁻¹.

B2: Lym-1 (antibody, V domains shown)
VH: QLKESGPGLVAPSQSLSITCTISGFSLTSYGVHWVRQPPGKGLEWLVVIWSDGSTTYNSALKSRLSISKDNSKSQVFLKMNSLQTDDTAIYYCASHYGSTLAFASWGHGTLVTVSA
VL: DIQMTQSPASLSASVGETVTIICRASVNIYSYLAWYQQKQGKSPQLLVYNAKILAEGVPSRFSGSGSGTQFSLKINSLQPEDFGSYYCQHHYGTFTFGSGTKLEIK
In experiment [1], B2 displayed a Ka of 8.8e+07 M⁻¹.
